According to patent US20180044401A1 (KANEKA, published 2018):

Columns and labels:
[1] = molecular target: T1, IgG-Fab derived from anti-RSV monoclonal antibody (Palivizumab); assay: SPR Biacore 3000, Fab immobilized on CM5, peptide flown, 25° C., pH 7.4, 1:1 model
T1 construct: Humanized monoclonal IgG fragmented with papain; Immobilized on a CM5 sensor tip; also called Anti-RSV antibody - Fab; Synagis Fab fragment
Procedure: (§1) The affinity of the peptide obtained in the above-described Example 1(2) for the Fc region and Fab region of anti-RSV monoclonal antibody was evaluated using a biosensor Biacore3000 (manufactured by GE Healthcare Bioscience) utilizing surface plasmon resonance. In the present Example, the IgG-Fc or IgG-Fab obtained in the above-described Example 2(1) was immobilized on a sensor tip, and the peptide was flown on the tip to detect the interaction between the two. The IgG-Fab or IgG-Fc was immobilized on a sensor tip CM5 by amine coupling method using N-hydroxysuccinimide (NHS) and N-ethyl-N′-(3-dimethylaminopropyl)carbodiimide hydrochloride (EDC), and ethanolamine was used for blocking. All of the sensor tip and reagents for immobilization was manufactured by GE Healthcare Bioscience. The IgG-Fab solution was diluted to about 10 times using a buffer for immobilization (10 mM AcOH—AcONa, pH 4.5), and the IgG-Fab was immobilized on the sensor tip in accordance with the protocol attached to the Biacore 3000. In addition, a reference cell as negative control was also prepared by activating another flow cell on the tip with EDC/NHS and then immobilizing ethanolamine only. Peptide solutions having concentrations of 16 nM, 64 nM or 256 nM were prepared using a running buffer (20 mM NaH₂PO₄—Na₂HPO₄, 150 mM NaCl, 0.005% P-20, pH 7.4). Each peptide solution was added to the sensor tip in a flow rate of 40 μL/min for 1 minute. Bonding response curves at the time of addition (association phase, 1 minute) and after the addition (dissociation phase, 1 minute) were sequentially obtained at a measurement temperature of 25° C. After each measurement, about 20 mM NaOH was added for wash.

[2] = molecular target: T2, IgG-Fc derived from anti-RSV monoclonal antibody (Palivizumab) (human, UniProt P01857-1 108-330 = IgG part, limits assumed); assay: SPR Biacore 3000, Fc immobilized on CM5, peptide flown, 25° C., pH 7.4, 1:1 model
T2 construct: domain: Fc region; Immobilized on a CM5 sensor tip by amine coupling; also called Anti-RSV antibody - Fc; Synagis Fc fragment
Procedure: as §1

[3] = molecular target: T3, IgG-Fab prepared from anti-EGFR monoclonal antibody (Erbitux); assay: SPR Biacore 3000, Fab immobilized on CM5, peptide at 25, 100, 400 nM, 1:1 model
T3 construct: Chimeric antibody; also called Anti-EGFR antibody - Fab
Procedure: as §1, with “Peptide solutions having concentrations of 16 nM, 64 nM or 256 nM were prepared using a running buffer (20 mM NaH₂PO₄—Na₂HPO₄, 150 mM NaCl, 0.005% P-20, pH 7.4).” left out
(§2) Also, the affinity of the peptide according to the present invention (SEQ ID NO: 2) for IgG-Fab prepared from anti-EGFR monoclonal antibody (“Erbitux” sold by Bristol-Myers Squibb) and anti-TNFα monoclonal antibody (“Remicade” sold by Mitsubishi Tanabe Pharma Corporation) was evaluated.

[4] = molecular target: T4, IgG-Fab prepared from anti-TNFα monoclonal antibody (Remicade); assay: as above
T4 construct: Chimeric antibody; also called Anti-TNFα antibody - Fab; IgG-Fab of anti-TNFα monoclonal antibody
Procedure: as §1, with “Peptide solutions having concentrations of 16 nM, 64 nM or 256 nM were prepared using a running buffer (20 mM NaH₂PO₄—Na₂HPO₄, 150 mM NaCl, 0.005% P-20, pH 7.4).” left out
as §2

B1: immunoglobulin G-binding peptide having the amino acid sequence of SEQ ID NO: 2 (designed binder)
chain: GPLGSTTYKLILNGKTLTGYTTAIAADAATAEIVLKQFANDNGIDGEWTYDDATKTFTVTE
notes: Expressed as a GST fusion in E. coli; GST was cleaved off with PreScission Protease before the assay; also called SpG mutant
**Q.** What does the source list for B1?
**A.** Ka [1]: 2e+07 M⁻¹; koff [1]: 0.003 s⁻¹; kon [1]: 66000 M⁻¹ s⁻¹; Ka [2]: 3.5e+06 M⁻¹; koff [2]: 0.028 s⁻¹; kon [2]: 97000 M⁻¹ s⁻¹; Ka [3]: 6.5e+07 M⁻¹; koff [3]: 0.039 s⁻¹; kon [3]: 252000 M⁻¹ s⁻¹; Ka [4]: 4e+07 M⁻¹; koff [4]: 0.01 s⁻¹; kon [4]: 413000 M⁻¹ s⁻¹
